Here are results for two molecules from US5830703.

Where no end group is shown, it is not given here.

This experiment has as its target sodium channel.

ARLDVASEFRKKWNKWALSR (ends and bridges not checked) [proadrenomedullin N-terminal 20 peptide (proAM-N20)] displayed a flow of ^22 Na into cells of 30%.
To RKKWNKWALSR (ends and bridges not checked) [proadrenomedullin N-terminal 10-20 peptide (proAM-N(10-20))] belongs 70%.
